Source: patent US20260176332A1 (BEIJING MDTK BIOTECHNOLOGY, published 2026)

Columns and labels:
[1] = target: T1, GSDMD-CT expressed protein (human, UniProt P57764 276-484); assay: competitive inhibition ELISA, coated GSDMD-CT vs soluble GSDMD-CT (FIG. 5)
T1 construct: Recombinantly expressed; also called recombinant GSDMD-CT; C-terminus of GSDMD
T1 sequence: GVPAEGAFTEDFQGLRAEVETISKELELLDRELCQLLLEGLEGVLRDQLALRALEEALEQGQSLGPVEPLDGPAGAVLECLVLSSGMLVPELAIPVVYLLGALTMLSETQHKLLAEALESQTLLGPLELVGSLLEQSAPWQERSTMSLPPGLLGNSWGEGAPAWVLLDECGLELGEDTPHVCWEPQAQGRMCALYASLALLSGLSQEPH
Protocol: The protein coating amount and antibody dilution concentration were preliminarily determined by checkerboard titration, and the experimental procedure was as follows:
(1) Coating antigen: The GSDMD-CT expressed protein was diluted with coating solution and coated at 2 ug/ml, 1 ug/ml, 0.5 ug/ml, 0.25 ug/ml, 100 ul/well overnight at 4° C.; washed three times with the washing solution, 350 ul/well, and pat dried. (2) Blocking: 200 ul/well blocking solution, incubated at 37° C. for 2 h; washed three times with the washing solution, 350 ul/well, and pat dried. (3) 1 ug/mL of #25, #44, and #50 antibodies was diluted 1,000 times with antibody diluent, then diluted with a 2-fold gradient, 100 μl/well, and blank was 100 μl of antibody diluent, and the antibodies were incubated at 37° C. for 1 h; washed three times with the washing solution, 350 ul/well, and pat dried. […] (6) Termination, reading: 100 ul/well stop solution was added, reading at OD 450 nm. (7) The dose curve of coating protein relative to antibody was determined. […] (10) 50 ul of sample solutions of different concentrations were added to 50 ul of diluted antibody, and then 100 ul of the mixture was added to the microplate reader plate and incubated for 1 h at 37° C.

[2] = target: T2, Elongated Peptide (SEQ ID NO:5: TDGVPAEGAFTEDFQGLR) (human); assay: ELISA, peptide coated at 2 ug/ml, hybridoma supernatant diluted 100 times
T2 construct: Synthetic peptide coated on the ELISA plate
T2 peptide: TDGVPAEGAFTEDFQGLR
Protocol: (§1) (1) Coating antigen: Specific Peptide and Elongated Peptide were respectively diluted with the coating solution, and coated at 2 μg/ml, 100 ul/well at 4° C. overnight; washed three times with the washing solution, 350 ul/well, and pat dried. (2) Blocking: 200 ul/well blocking solution, incubated at 37° C. for 2 h; washed three times with the washing solution, 350 ul/well, and pat dried. (3) The antibody (such as #25, #44, or #50) supernatant medium in Table 1 was diluted by 100 times with antibody diluent, 100 ul/well, and the blank was 100 ul antibody dilution, and they were incubated at 37° C. for 1 h; washed three times with the washing solution, 350 ul/well, and pat dried. (4) The secondary antibody was diluted with antibody diluent at a ratio of 1:10000, 100 ul/well, incubated at 37° C. for 1 h; washed three times with the washing solution, 350 ul/well, and pat dried. (5) Color development: 100 ul/well developer was added, incubating 10 min at room temperature. (6) Termination, reading: 100 ul/well stop solution was added, reading at OD 450 nm.

[3] = target: T3, Specific Peptide (SEQ ID NO:4: GVPAEGAFTEDFQGLR) (human); assay: as above
T3 construct: Synthetic peptide coated on the ELISA plate; also called polypeptide number #1
T3 peptide: GVPAEGAFTEDFQGLR
Protocol: as §1

- binding result [1]: binds
- binding result [2]: no binding
- binding result [3]: binds
B1: MD2106 #50 (antibody, IgG1, V domains shown)
VH: QVQLQQPGTELVKPGASVKLSCKASGYTFTNYWIHWVKQRPGQGLEWIGNTKPSNGDIHYNEKFRSKATLTVDKSSSTAYIQLSSLTSEDSAVYFCAVGYYWGQGTTLTVSS
VL: DIVMTQSPSSLTVTAGEKVTMSCKSSQSLLNSGNQKNYLTWYQQKPGQPPKMLIYWAYNRDSGVPDRFTGSGSGADFTLTISSVQAEDLAVYYCQNDYSYPLTFGAGTKLEL
notes: Mouse hybridoma monoclonal antibody; heavy chain type IgG1, light chain type kappa; Hybridoma supernatant diluted 100 times in the peptide ELISA; 1 ug/mL antibody, further diluted, in the GSDMD-CT ELISA; also called monoclonal antibody #50; MD2106-#5 #50
